Assay results published in patent publication US20220041738A1 (SAITAMA MEDICAL UNIVERSITY, published 2022).
Numbering of substitutions follows the chain as printed.

Experiments:
Test in all cases: immunofluorescence on transfected, formalin-fixed C2C12 cells, IgG at 10 µg/mL, Alexa 594 anti-rat IgG
[1] = target: T1, human ALK2-R258S on cells (human, UniProt Q04771 21-509)
T1 sequence: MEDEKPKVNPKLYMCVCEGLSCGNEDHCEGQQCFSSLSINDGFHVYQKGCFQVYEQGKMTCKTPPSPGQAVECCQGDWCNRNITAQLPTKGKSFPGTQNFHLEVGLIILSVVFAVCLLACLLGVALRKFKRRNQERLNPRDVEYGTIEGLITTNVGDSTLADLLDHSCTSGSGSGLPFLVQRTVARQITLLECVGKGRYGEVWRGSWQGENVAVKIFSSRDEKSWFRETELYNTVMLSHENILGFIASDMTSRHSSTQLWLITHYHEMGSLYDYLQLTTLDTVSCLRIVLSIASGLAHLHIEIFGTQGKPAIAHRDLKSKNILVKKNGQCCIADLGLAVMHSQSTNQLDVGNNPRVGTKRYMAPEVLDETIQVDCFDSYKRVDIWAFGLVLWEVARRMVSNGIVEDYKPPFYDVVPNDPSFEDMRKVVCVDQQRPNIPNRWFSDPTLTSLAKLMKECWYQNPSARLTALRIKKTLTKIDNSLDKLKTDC
Protocol: (§1) Mouse C2C12 cells were seeded into a 96-well plate (Greiner Bio-One) at 0.5×10³ cells/well, and cultured in 15% FBS-containing DMEM medium overnight under the conditions of 5% CO₂ at 37° C. On the following day, the C2C12 cells were transfected with each of a wild-type human ALK2 cDNA integrated into pcDEF3; pcDEF3/human ALK2-L196P, pcDEF3/human ALK2-P197_F198delinsL, pcDEF3/human ALK2-R202I, pcDEF3/human ALK2-R206H, pcDEF3/human ALK2-Q207E, pcDEF3/human ALK2-R258S, pcDEF3/human ALK2-G325A, pcDEF3/human ALK2-G328E, pcDEF3/human ALK2-G328R, pcDEF3/human ALK2-G328W, pcDEF3/human ALK2-G356D, and pcDEF3/human ALK2-R375P, which are variants identified in FOP; and pcDEF3 as a control, using Lipofectamine 2000 (Invitrogen), and further cultured overnight.
(§2) The C2C12 cells were fixed with 10% neutral formalin (Nacalai Tesque, Japan) for 20 minutes at room temperature, and then blocked with 10% goat normal serum for 30 minutes. After the blocking agent was removed, purified IgG diluted to 10 μg/mL with the blocking agent was added, and the cells were left for 1 hour at room temperature. After the cells were washed with PBS three times, Goat Alexa 594-conjugated anti-rat IgG (Invitrogen) diluted to 1:1000 with the blocking agent was added, and the cells were left for 1 hour at room temperature. After the cells were washed with PBS three times, the cells were fixed with 10% neutral formalin for 15 minutes at room temperature, and nuclear-stained with DAPI (LifeTechnologies). Fluorescent signals were analyzed with a fluorescence microscope BZ-9000 (Keyence).

[2] = target: T2, human ALK2-G328R on cells (human, UniProt Q04771 21-509)
T2 sequence: T1 sequence with S238R, G308R
Protocol: as §1, §2

[3] = target: T3, wild-type human ALK2 on cells (cDNA in pcDEF3) (human, UniProt Q04771 21-509)
T3 construct: also called wild-type ALK2; ALK2 (WT)
T3 sequence: T1 sequence with S238R
Protocol: as §1, §2

[4] = target: T4, human ALK2-R375P on cells (human, UniProt Q04771 21-509)
T4 sequence: T1 sequence with S238R, R355P
Protocol: as §1, §2

Measured: binding result

B1: rat anti-ALK2 monoclonal antibody A2-25C (antibody, V domains shown)
VH: EVQLVESGGGLVQPGGSLKLSCAASGFTFSYYAMSWVCQAPTKGLEWVASISRGGDNTYYRDTVKGRFTTSRDNAKNTLYLQMDSLRSEDTATYYCARLNYNNYFDYWGQGVMVTVSS
VL: DIQMTQSPASLSASLEEIVTITCQASQDIGNWLSWYQQKPGKSPQLLIYGATSLADGVPSRFSGSRSGTQYSLKISRLRVEDIGIYYCLQAYSAPFTFGSGTKLEIKR
notes: Rat monoclonal IgG from a hybridoma; also called 25C11
binds: all assays above

B2: rat anti-ALK2 monoclonal antibody A2-27D (antibody, V domains shown)
VH: EVQLVESGGGLVQPGRSLKLSCLASGSTFSNYGMKWIRQAPGKGLEWVASISRSSTYIYYADTVKGRFTISRDNARNTLYLQMTSLRSEDTALYYCAAAISTPFYWYFDFWGPGTVVTVSS
VL: EIVLTQSPTTMAASPGEKVTLNCLASSSVSYMTWYQQKSGASPKLWIYGTSNLASGVPNRFSGSGSGTSYSLAISSMEAEDVATYYCLHLTSYPPYTFGAGTKLELKR
notes: Rat monoclonal IgG from a hybridoma; also called 27D11
binds: all assays above
